The values that follow come from patent US20220017612A1 (TILOS THERAPEUTICS, published 2022).

By Kd is commonly meant the equilibrium constant for the complex coming apart. Read a high Kd as lower affinity. The koff is the first-order rate constant of dissociation. A lower koff goes with slow dissociation. As a reminder, the kon is a measure of how fast the partners come together. The low end stands for slower complex formation, the high end for faster complex formation.

In experiment [1] the target is T1, human LAP-TGFβ1 overexpressed on cells (human, UniProt P01137 30-390).
T1 construct: HT1080 or P3U1 cells overexpressing wild-type human LAP-TGFβ1; also called HT1080-huB1; HT1080-hβ1
T1 sequence (P01137 30-390): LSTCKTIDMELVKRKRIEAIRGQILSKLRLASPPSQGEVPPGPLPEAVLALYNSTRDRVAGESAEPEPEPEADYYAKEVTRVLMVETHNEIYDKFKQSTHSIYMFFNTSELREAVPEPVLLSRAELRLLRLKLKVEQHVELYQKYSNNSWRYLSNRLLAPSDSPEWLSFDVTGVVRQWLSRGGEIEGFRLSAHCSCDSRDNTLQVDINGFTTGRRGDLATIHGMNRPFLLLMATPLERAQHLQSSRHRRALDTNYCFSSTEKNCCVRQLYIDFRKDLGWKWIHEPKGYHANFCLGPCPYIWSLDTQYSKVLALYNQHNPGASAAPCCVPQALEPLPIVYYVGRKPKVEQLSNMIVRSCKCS
Briefly: flow cytometry; black bar HT1080-huB1, grey bar HT1080.

The target in experiment [2] is T2, fusion protein of a human IgG1 Fc domain and human LAP-TGFβ1 (human, UniProt P01137 30-390).
T2 construct: printed both as Fc-huB1 and LAP-TGFβ-Fc; also called Fc-huB1; Fc-human LAP
T2 sequence (P01137 30-390 limits assumed): as the sequence (P01137 30-390) above
Briefly: BLI (Octet). In general terms: In BLI a coated tip is dipped into the sample, and binding shifts an interference pattern.

B1: N73D_V44P (antibody, human IgG1, kappa, V domains shown)
VH: EVQLVESGGGLVQPGGSLRLSCAASGFTFTDYYMSWVRQAPGKGLEWLGFIRNKPNGYTTEYSASVKGRFTISRDDSQSSLYLQMNSLKTEDTAVYYCARYTGGGYFDYWGQGTLLTVSS
VL: DIQMTQSPSSLSASVGDRLTISCRASQDISNYLNWYQQKPGKTPKLLIYYTSRLHSGVPSRFSGSGSGTDYTLTISSLQPEDVATYFCQQGDTLPWTFGQGTKLEIKR
notes: also called 28G11_H2L3 with HC N73D and LC V44P
For the molecule B1, the binding result in experiment [1] is given as “no binding”.

B2: 20E6_H2L1 (antibody, human IgG1, kappa, V domains shown)
VH: QVQLVQSGAEVKKPGASVKVSCKASGYTFTSYWMHWVRQAPGQGLEWIGRIDPNSGGIKYNEKFKSRVTLTVDKSSSTAYMELSRLRSDDTAVYYCARWDYGGYFDVWGQGTLVTVSS
VL: DIQMTQSPSSLSASVGDRVTITCRASQDITNYLNWYQQKPGKAVKLLIYYTSRLHSGVPSRFSGSGSGTDYTLTISSLQPEDFATYFCQQGDTLPWTFGQGTKLEIKR
Consider B2, for which, in experiment [2], the affinity, expressed as Kd, was 0.48 nM; the koff was 0.000747 s⁻¹; the kon was 1.57e+06 M⁻¹ s⁻¹.

B3: Q75K_WT (antibody, human IgG1, kappa)
heavy: not shown
light: DIQMTQSPSSLSASVGDRLTISCRASQDISNYLNWYQQKPGKTVKLLIYYTSRLHSGVPSRFSGSGSGTDYTLTISSLQPEDVATYFCQQGDTLPWTFGQGTKLEIKRTVAAPSVFIFPPSDEQLKSGTASVVCLLNNFYPREAKVQWKVDNALQSGNSQESVTEQDSKDSTYSLSSTLTLSKADYEKHKVYACEVTHQGLSSPVTKSFNRGEC
notes: also called 28G11_H2L3 with HC Q75K
Turning to B3, the binding result in experiment [1] is reported as “binds”.

B4: Q75K_V44P (antibody, human IgG1, kappa, V domains shown)
VH: EVQLVESGGGLVQPGGSLRLSCAASGFTFTDYYMSWVRQAPGKGLEWLGFIRNKPNGYTTEYSASVKGRFTISRDNSKSSLYLQMNSLKTEDTAVYYCARYTGGGYFDYWGQGTLLTVSS
VL: DIQMTQSPSSLSASVGDRLTISCRASQDISNYLNWYQQKPGKTPKLLIYYTSRLHSGVPSRFSGSGSGTDYTLTISSLQPEDVATYFCQQGDTLPWTFGQGTKLEIKR
notes: also called 28G11_H2L3 with HC Q75K and LC V44P
Regarding B4, the binding result in experiment [1] was “binds”.

B5: S76N_V44P (antibody, human IgG1, kappa, V domains shown)
VH: EVQLVESGGGLVQPGGSLRLSCAASGFTFTDYYMSWVRQAPGKGLEWLGFIRNKPNGYTTEYSASVKGRFTISRDNSQNSLYLQMNSLKTEDTAVYYCARYTGGGYFDYWGQGTLLTVSS
VL: DIQMTQSPSSLSASVGDRLTISCRASQDISNYLNWYQQKPGKTPKLLIYYTSRLHSGVPSRFSGSGSGTDYTLTISSLQPEDVATYFCQQGDTLPWTFGQGTKLEIKR
notes: also called 28G11_H2L3 with HC S76N and LC V44P
As for B5, in experiment [1], the binding result is reported as “binds”.

B6: T30S_F87Y (antibody, human IgG1, kappa, V domains shown)
VH: EVQLVESGGGLVQPGGSLRLSCAASGFTFSDYYMSWVRQAPGKGLEWLGFIRNKPNGYTTEYSASVKGRFTISRDNSQSSLYLQMNSLKTEDTAVYYCARYTGGGYFDYWGQGTLLTVSS
VL: DIQMTQSPSSLSASVGDRLTISCRASQDISNYLNWYQQKPGKTVKLLIYYTSRLHSGVPSRFSGSGSGTDYTLTISSLQPEDVATYYCQQGDTLPWTFGQGTKLEIKR
notes: also called 28G11_H2L3 with HC T30S and LC F87Y
B6: the binding result in experiment [1] is listed as “binds”.

B7: 20E6_H0L1 (antibody, human IgG1, kappa, V domains shown)
VH: QVQLVQSGAEVKKPGASVKVSCKASGYTFTSYWMHWVRQAPGQGLEWMGRIDPNSGGIKYNEKFKSRVTMTRDTSISTAYMELSRLRSDDTAVYYCARWDYGGYFDVWGQGTLVTVSS
VL: DIQMTQSPSSLSASVGDRVTITCRASQDITNYLNWYQQKPGKAVKLLIYYTSRLHSGVPSRFSGSGSGTDYTLTISSLQPEDFATYFCQQGDTLPWTFGQGTKLEIKR
In experiment [2], B7 had a Kd of 0.51 nM, a koff of 0.000814 s⁻¹ and a kon of 1.59e+06 M⁻¹ s⁻¹.

B8: T30S_V44P (antibody, human IgG1, kappa, V domains shown)
VH: EVQLVESGGGLVQPGGSLRLSCAASGFTFSDYYMSWVRQAPGKGLEWLGFIRNKPNGYTTEYSASVKGRFTISRDNSQSSLYLQMNSLKTEDTAVYYCARYTGGGYFDYWGQGTLLTVSS
VL: DIQMTQSPSSLSASVGDRLTISCRASQDISNYLNWYQQKPGKTPKLLIYYTSRLHSGVPSRFSGSGSGTDYTLTISSLQPEDVATYFCQQGDTLPWTFGQGTKLEIKR
notes: also called 28G11_H2L3 with HC T30S and LC V44P
As for B8, the binding result in experiment [1] is listed as “binds”.

B9: T30S_T43V (antibody, human IgG1, kappa, V domains shown)
VH: EVQLVESGGGLVQPGGSLRLSCAASGFTFSDYYMSWVRQAPGKGLEWLGFIRNKPNGYTTEYSASVKGRFTISRDNSQSSLYLQMNSLKTEDTAVYYCARYTGGGYFDYWGQGTLLTVSS
VL: DIQMTQSPSSLSASVGDRLTISCRASQDISNYLNWYQQKPGKVVKLLIYYTSRLHSGVPSRFSGSGSGTDYTLTISSLQPEDVATYFCQQGDTLPWTFGQGTKLEIKR
notes: also called 28G11_H2L3 with HC T30S and LC T43V
With B9, the binding result in experiment [1] is on record as “binds”.

B10: T30S_Y71F (antibody, human IgG1, kappa, V domains shown)
VH: EVQLVESGGGLVQPGGSLRLSCAASGFTFSDYYMSWVRQAPGKGLEWLGFIRNKPNGYTTEYSASVKGRFTISRDNSQSSLYLQMNSLKTEDTAVYYCARYTGGGYFDYWGQGTLLTVSS
VL: DIQMTQSPSSLSASVGDRLTISCRASQDISNYLNWYQQKPGKTVKLLIYYTSRLHSGVPSRFSGSGSGTDFTLTISSLQPEDVATYFCQQGDTLPWTFGQGTKLEIKR
notes: also called 28G11_H2L3 with HC T30S and LC Y71F
As to B10, in experiment [1], the binding result is reported as “no binding”.

B11: Q75K_T43V (antibody, human IgG1, kappa, V domains shown)
VH: EVQLVESGGGLVQPGGSLRLSCAASGFTFTDYYMSWVRQAPGKGLEWLGFIRNKPNGYTTEYSASVKGRFTISRDNSKSSLYLQMNSLKTEDTAVYYCARYTGGGYFDYWGQGTLLTVSS
VL: DIQMTQSPSSLSASVGDRLTISCRASQDISNYLNWYQQKPGKVVKLLIYYTSRLHSGVPSRFSGSGSGTDYTLTISSLQPEDVATYFCQQGDTLPWTFGQGTKLEIKR
notes: also called 28G11_H2L3 with HC Q75K and LC T43V
Consider B11, for which the binding result in experiment [1] is “binds”.

B12: N73D_Y71F (antibody, human IgG1, kappa, V domains shown)
VH: EVQLVESGGGLVQPGGSLRLSCAASGFTFTDYYMSWVRQAPGKGLEWLGFIRNKPNGYTTEYSASVKGRFTISRDDSQSSLYLQMNSLKTEDTAVYYCARYTGGGYFDYWGQGTLLTVSS
VL: DIQMTQSPSSLSASVGDRLTISCRASQDISNYLNWYQQKPGKTVKLLIYYTSRLHSGVPSRFSGSGSGTDFTLTISSLQPEDVATYFCQQGDTLPWTFGQGTKLEIKR
notes: also called 28G11_H2L3 with HC N73D and LC Y71F
Consider B12, for which the binding result in experiment [1] was “no binding”.

B13: 20E6_H3L1 (antibody, human IgG1, kappa)
heavy: not shown
light: DIQMTQSPSSLSASVGDRVTITCRASQDITNYLNWYQQKPGKAVKLLIYYTSRLHSGVPSRFSGSGSGTDYTLTISSLQPEDFATYFCQQGDTLPWTFGQGTKLEIKRTVAAPSVFIFPPSDEQLKSGTASVVCLLNNFYPREAKVQWKVDNALQSGNSQESVTEQDSKDSTYSLSSTLTLSKADYEKHKVYACEVTHQGLSSPVTKSFNRGEC
Regarding B13, in experiment [2], the Kd is 0.47 nM, the koff was 0.000702 s⁻¹ and the association rate constant (kon) amounted to 1.48e+06 M⁻¹ s⁻¹.

B14: S76N_WT (antibody, human IgG1, kappa, V domains shown)
VH: EVQLVESGGGLVQPGGSLRLSCAASGFTFTDYYMSWVRQAPGKGLEWLGFIRNKPNGYTTEYSASVKGRFTISRDNSQNSLYLQMNSLKTEDTAVYYCARYTGGGYFDYWGQGTLLTVSS
VL: DIQMTQSPSSLSASVGDRLTISCRASQDISNYLNWYQQKPGKTVKLLIYYTSRLHSGVPSRFSGSGSGTDYTLTISSLQPEDVATYFCQQGDTLPWTFGQGTKLEIKR
notes: also called 28G11_H2L3 with HC S76N
As to B14, in experiment [1], the binding result is “binds”.

B15: S76N_F87Y (antibody, human IgG1, kappa, V domains shown)
VH: EVQLVESGGGLVQPGGSLRLSCAASGFTFTDYYMSWVRQAPGKGLEWLGFIRNKPNGYTTEYSASVKGRFTISRDNSQNSLYLQMNSLKTEDTAVYYCARYTGGGYFDYWGQGTLLTVSS
VL: DIQMTQSPSSLSASVGDRLTISCRASQDISNYLNWYQQKPGKTVKLLIYYTSRLHSGVPSRFSGSGSGTDYTLTISSLQPEDVATYYCQQGDTLPWTFGQGTKLEIKR
notes: also called 28G11_H2L3 with HC S76N and LC F87Y
Consider B15, for which the binding result in experiment [1] is “binds”.

B16: S76N_T43V (antibody, human IgG1, kappa, V domains shown)
VH: EVQLVESGGGLVQPGGSLRLSCAASGFTFTDYYMSWVRQAPGKGLEWLGFIRNKPNGYTTEYSASVKGRFTISRDNSQNSLYLQMNSLKTEDTAVYYCARYTGGGYFDYWGQGTLLTVSS
VL: DIQMTQSPSSLSASVGDRLTISCRASQDISNYLNWYQQKPGKVVKLLIYYTSRLHSGVPSRFSGSGSGTDYTLTISSLQPEDVATYFCQQGDTLPWTFGQGTKLEIKR
notes: also called 28G11_H2L3 with HC S76N and LC T43V
Turning to B16, in experiment [1], the binding result is on record as “binds”.

B17: 20E6_H1L1 (antibody, human IgG1, kappa, V domains shown)
VH: QVQLVQSGAEVKKPGASVKVSCKASGYTFTSYWMHWVRQAPGQGLEWIGRIDPNSGGIKYNEKFKSRVTLTVDTSISTAYMELSRLRSDDTAVYYCARWDYGGYFDVWGQGTLVTVSS
VL: DIQMTQSPSSLSASVGDRVTITCRASQDITNYLNWYQQKPGKAVKLLIYYTSRLHSGVPSRFSGSGSGTDYTLTISSLQPEDFATYFCQQGDTLPWTFGQGTKLEIKR
As for B17, in experiment [2], the Kd was found to be 0.48 nM, the koff amounted to 0.000677 s⁻¹ and the kon was 1.41e+06 M⁻¹ s⁻¹.

B18: Q75K_L19V (antibody, human IgG1, kappa)
heavy: not shown
light: DIQMTQSPSSLSASVGDRVTISCRASQDISNYLNWYQQKPGKTVKLLIYYTSRLHSGVPSRFSGSGSGTDYTLTISSLQPEDVATYFCQQGDTLPWTFGQGTKLEIKRTVAAPSVFIFPPSDEQLKSGTASVVCLLNNFYPREAKVQWKVDNALQSGNSQESVTEQDSKDSTYSLSSTLTLSKADYEKHKVYACEVTHQGLSSPVTKSFNRGEC
notes: also called 28G11_H2L3 with HC Q75K and LC L19V
Consider B18, for which the binding result in experiment [1] is listed as “binds”.

B19: 20E6_H4L1 (antibody, human IgG1, kappa)
heavy: not shown
light: DIQMTQSPSSLSASVGDRVTITCRASQDITNYLNWYQQKPGKAVKLLIYYTSRLHSGVPSRFSGSGSGTDYTLTISSLQPEDFATYFCQQGDTLPWTFGQGTKLEIKRTVAAPSVFIFPPSDEQLKSGTASVVCLLNNFYPREAKVQWKVDNALQSGNSQESVTEQDSKDSTYSLSSTLTLSKADYEKHKVYACEVTHQGLSSPVTKSFNRGEC
With B19, in experiment [2], the dissociation constant (Kd) was determined as 0.47 nM, the koff was found to be 0.000729 s⁻¹ and the on-rate (kon) was 1.56e+06 M⁻¹ s⁻¹.
